Results: patent publication US12648964B2, “Chimeric Tim receptors and uses thereof” (CERO THERAPEUTICS HOLDINGS, INC., priority 2020, dated 2026)
Entries after “also recorded” stand apart in the source; their conditions may differ. Read-outs that look alike come from different tables or passages of the source.

Key:
[1] = test system: Kuramochi cells; settings: 1.56 or 25 μM Niraparib, 48 hours, vs DMSO
Protocol: FIG. 7A: Flow cytometry measurement of surface PtdSer. Kuramochi cells were treated with 1.56 or 25 μM Niraparib or with equivalent volume of DMSO (control). 48 hours later samples were trypsinized and stained using a Tim4-Fc followed by a fluorescently-labeled secondary antibody to the Tim4-Fc. […] All data were collected via IncuCyte.
(§1) In ovarian tumors, poly (ADP-ribose) polymerase (PARP) inhibitors, such as Niraparib, are clinically approved drugs which target DNA damage response pathways. Responses are rarely complete, with relapse common after treatment. To induce Ptd-Ser exposure, BRCA-2 mutated Kuramochi cell line was treated with therapeutic doses of the PARP inhibitor Niraparib.

[2] = test system: Kuramochi cells; settings: BRCA-2 mutated Kuramochi cell line
Protocol: as §1

[3] = test system: phosphatidylserine; settings: cited from earlier work; for binding at High PtdSer: high phosphatidylserine density; for binding at Low PtdSer: low phosphatidylserine density
[4] = test system: E7 TCR-T cells; test: E7 TCR-T cell activation markers CD25/CD69 after co-culture with E7 peptide-pulsed CER-T cells (flow cytometry); type: cell-based
Protocol: (§2) FIG. 2: T cells containing chimeric Tim4 receptors with a TLR intracellular signaling domain added to the CD3ζ signaling domain (and optionally a CD28 signaling domain) are strong stimulators of autologous E7-specific T cell responses. CER-T cells were pulsed with E7 peptide and tested for their capacity to trigger an autologous E7-specific T cell response. CD25, a T cell activation marker, was evaluated on E7 TCR-T cells, 24 hours after CER-T cells were pulsed with E7 peptides.
as §2, with “3:” for “2:”, “CD69, an early marker for” for “CD25, a”, “activation,” for “activation marker,”
(§3) Chimeric Tim4 receptor-T cells were tested to determine whether they can capture and present soluble antigens and trigger activation and proliferation of recombinant E7-restricted T cell clones in a co-culture system. First expression of Tim4 was confirmed on transduced CER T cells by flow cytometry. Tim4 binding domain-CD28 transmembrane-CD28 signaling domain-CD3z signaling domain (CTX247) and Tim4 binding domain-CD28 signaling domain-CD3z signaling domain-TLR2 signaling domain (CTX1107) were stained for Tim4 and EGFR, a transduction marker encoded on each vector. […] E7 TCRs proliferate in response to APCs pulsed with E7 peptide through MHC class I. For autologous APCs, CD4+ and CD8+ chimeric Tim4 receptor T cell products transduced with different Tim-4 chimeric receptors were pulsed with a pool of 15-mer peptides containing 11-mer overlaps derived from the E7 protein from HPV16 or vehicle. Chimeric Tim4 receptor T cells were pulsed at 37° C. for 4 hrs with E7 peptides and tested for their capacity to trigger E7-specific activation and proliferation. E7-TCR cell surface activation marker responses were evaluated by flow cytometry 24 hours following co-culture with chimeric Tim4 receptor-T cell products. After an additional 5 days of co-culture, proliferative responses were assessed by Cell Trace (CT) Violet dilution.
A higher frequency of E7-TCR containing T cells expressed both activation markers 24 hours after co-culture (FIG. 2).

[5] = test system: E7 TCR-T cells; test: E7-specific T cell proliferation by CT Violet dye dilution after co-culture with E7 peptide-pulsed CER-T cells; type: cell-based; settings: for stimulation / proliferation responses of E7-specific T cells: CER-T pulsed with E7 peptides, CT Violet dilution after 6 days
Protocol: FIG. 1A: a schematic of pCTX247 and pCTX1107 chimeric Tim4 receptors and pCTX1107 T cells pulsed with E7 peptides and co-cultured with E7-specific T cells to evaluate their antigen presentation capacity. FIG. 1B: E7-specific proliferation responses were measured by CT Violet dye dilution after 6 days in the presence of autologous CER-T (TLR containing or non-containing CERs) pulsed with E7 peptides. […] All data collected by FACS. Cell tracing show E7 TCR-T cells using an anti-mouse TCRb. E7 TCR-T cells were labeled with CT Violet at the time of co-culture.
as §3, with “dilution. […]” for “dilution.”

[6] = 24 hours after CER-T cells pulsed with E7 peptides

Molecule: NC(=O)c1cccc2cn(-c3ccc([C@@H]4CCCNC4)cc3)nc12 [Niraparib]
- surface PtdSer (membrane phospholipid symmetry) [1]: elicits changes in membrane phospholipid symmetry, in a dose dependent manner
- inhibition of growth of Kuramochi cells [2]: effective in inhibiting growth

B1: Tim-4: T-cell immunoglobulin and mucin domain containing protein 4, phosphatidylserine receptor (protein, UniProt Q96H15 25-378, looked up)
T-cell immunoglobulin and …: ETVVTEVLGHRVTLPCLYSSWSHNSNSMCWGKDQCPYSGCKEALIRTDGMRVTSRKSAKYRLQGTIPRGDVSLTILNPSESDSGVYCCRIEVPGWFNDVKINVRLNLQRASTTTHRTATTTTRRTTTTSPTTTRQMTTTPAALPTTVVTTPDLTTGTPLQMTTIAVFTTANTCLSLTPSTLPEEATGLLTPEPSKEGPILTAESETVLPSDSWSSVESTSADTVLLTSKESKVWDLPSTSHVSMWKTSDSVSSPQPGASDTAVPEQNKTTKTGQMDGIPMSMKNEMPISQLLMIIAPSLGFVLFALFVAFLLRGKLMETYCSQKHTRLDYIGDSKNVLNDVQHGREDEDGLFTL
- Cooperativity [3]: Yes
- binding at High PtdSer [3]: Strong
- binding at Low PtdSer [3]: Minimal
- binding at Low PtdSer ([3]; listed as Tim4 binding domain): binds minimally

B2: Tim-1: T-cell immunoglobulin and mucin domain containing protein 1, phosphatidylserine receptor (protein, UniProt Q96D42 21-364, looked up)
Hepatitis A virus cellular …: SVKVGGEAGPSVTLPCHYSGAVTSMCWNRGSCSLFTCQNGIVWTNGTHVTYRKDTRYKLLGDLSRRDVSLTIENTAVSDSGVYCCRVEHRGWFNDMKITVSLEIVPPKVTTTPIVTTVPTVTTVRTSTTVPTTTTVPMTTVPTTTVPTTMSIPTTTTVLTTMTVSTTTSVPTTTSIPTTTSVPVTTTVSTFVPPMPLPRQNHEPVATSPSSPQPAETHPTTLQGAIRREPTSSPLYSYTTDGNDTVTESSDGLWNNNQTQLFLEHSLLTANTTKGIYAGVCISVLVLLALLGVIIAKKYFFKKEVQQLSVSFSSLQIKALQNAVEKEVQAEDNIYIENSLYATD
- binding at High PtdSer [3]: Strong
- binding at Low PtdSer [3]: Moderate
- binding at Low PtdSer ([3]; listed as Tim1 binding domain): binds more strongly to a lower phosphatidylserine density
- binding at Moderate PtdSer ([3]; moderate phosphatidylserine density): Strong

B3: pCTX1107: Tim4 binding domain-CD28 signaling domain-CD3z signaling domain-TLR2 signaling domain (protein)
chain: ETVVTEVLGHRVTLPCLYSSWSHNSNSMCWGKDQCPYSGCKEALIRTDGMRVTSRKSAKYRLQGTIPRGDVSLTILNPSESDSGVYCCRIEVPGWFNDVKINVRLNLQRASTTTHRTATTTTRRTTTTSPTTTRQMTTTPAALPTTVVTTPDLTTGTPLQMTTIAVFTTANTCLSLTPSTLPEEATGLLTPEPSKEGPILTAESETVLPSDSWSSVESTSADTVLLTSKESKVWDLPSTSHVSMWKTSDSVSSPQPGASDTAVPEQNKTTKTGQMDGIPMSMKNEMPISQRSKRSRLLHSDYMNMTPRRPGPTRKHYQPYAPPRDFAAYRSRVKFSRSADAPAYQQGQNQLYNELNLGRREEYDVLDKRRGRDPEMGGKPRRKNPQEGLYNELQKDKMAEAYSEIGMKGERRRGKGHDGLYQGLSTATKDTYDALHMQALPPRHRFHGLWYMKMMWAWLQAKRKPRKAPSRNICYDAFVSYSERDAYWVENLMVQELENFNPPFKLCLHKRDFIPGKWIIDNIIDSIEKSHKTVFVLSENFVKSEWCKYELDFSHFRLFDENNDAAILILLEPIEKKAIPQRFCKLRKIMNTKTYLEWPMDEAQREGFWVNLRAAIKS
modifications: left off: large carriers
- CD25 on E7 TCR-T cells (E7-specific activation) [4, 6]: strong stimulator of E7-specific activation
- CD69 on E7 TCR-T cells (E7-specific activation) [4, 6]: strong stimulator of E7-specific activation
- CD25 and CD69 upregulation (E7-specific activation) ([4]; 24 hours after co-culture, flow cytometry): strong stimulatory of E7-specific activation
- E7 TCR-T cell surface activation markers CD25 and CD69 upregulated ([4]; 24 hrs following co-culture, controls 23.1%): 41.2%
- stimulation / proliferation responses of E7-specific T cells [5]: stimulatory for E7-specific T cells; also recorded: triggered proliferation responses of E7-specific TCRs
- percentage of dividing E7-TCR-T cells ([5]; by 6 days, controls 8%): 44%

B4: pCTX247: Tim4 binding domain-CD28 transmembrane-CD28 signaling domain-CD3z signaling domain (protein)
chain: ETVVTEVLGHRVTLPCLYSSWSHNSNSMCWGKDQCPYSGCKEALIRTDGMRVTSRKSAKYRLQGTIPRGDVSLTILNPSESDSGVYCCRIEVPGWFNDVKINVRLNLQRASTTTHRTATTTTRRTTTTSPTTTRQMTTTPAALPTTVVTTPDLTTGTPLQMTTIAVFTTANTCLSLTPSTLPEEATGLLTPEPSKEGPILTAESETVLPSDSWSSVESTSADTVLLTSKESKVWDLPSTSHVSMWKTSDSVSSPQPGASDTAVPEQNKTTKTGQMDGIPMSMKNEMPISQFWVLVVVGGVLACYSLLVTVAFIIFWVRSKRSRLLHSDYMNMTPRRPGPTRKHYQPYAPPRDFAAYRSRVKFSRSADAPAYQQGQNQLYNELNLGRREEYDVLDKRRGRDPEMGGKPRRKNPQEGLYNELQKDKMAEAYSEIGMKGERRRGKGHDGLYQGLSTATKDTYDALHMQALPPR
- stimulation / proliferation responses of E7-specific T cells [5]: not stimulatory
